Measured values as given in publication PMC10340229, “EpoR Activation Stimulates Erythroid Precursor Proliferation by Inducing Phosphorylation of Tyrosine-88 of the CDK-Inhibitor p27^Kip1” (Cells, 2023).
Substitutions are numbered along the chain they refer to. In names and notes the source's numbering stands.

B1: GST–hIC EpoR N (273–433aa) (domain or fragment, human, UniProt P19235 273-433, looked up)
chain: SHRRALKQKIWPGIPSPESEFEGLFTTHKGNFQLWLYQNDGCLWWSPCTPFTEDPPASLEVLSERCWGTMQAVEPGTDDEGPLLEPVGSEHAQDTYLVLDKWLLPRNPPSEDLPGPGGSVDIVAMDEGSEASSCSSALASKPSPEGASAASFEYTILDPSS
notes: also called N–terminal truncated cytoplasmic domain of EpoR; source: E. coli BL21, purified on glutathione Sepharose beads
B2: p27 ΔSH3 (amino acids 94, 95, 96 PPK to GCA) (natural protein, human, UniProt P46527 1-198, looked up)
chain: MSNVRVSNGSPSLERMDARQAEHPKPSACRNLFGPVDHEELTRDLEKHCRDMEEASQRKWNFDFQNHKPLEGKYEWQEVEKGSLPEFYYRPPRGCAGACKVPAQESQDVSGSRPAAPLIGAPANSEDTHLVDPKTDPSDSQTGLAEQCAGIRKRPATDDSSTQNKRANRTEENVSDGSPNAGSVEQTPKKPGLRRRQT
notes: p27^Kip1 (CDKN1B), human, with point mutations in the proline-rich region; also called p27 ∆SH3; ΔSH3 mutant; source: bacteria, purified by heat treatment
B3: p27 CK– (R30A, L32A, F62A, F64A) (natural protein, human, UniProt P46527 1-198, looked up)
chain: B2 chain with R30A, L32A, F62A, F64A, G94P, C95P, A96K
notes: p27^Kip1 (CDKN1B), human, with four point mutations; source: bacteria, purified by heat treatment

Tests used:
[1] = target: T1, bacterially expressed recombinant p27 (full–length p27) (human, UniProt P46527 1-198); experiment: pull-down; GST fusion proteins bound on glutathione Sepharose beads incubated for 2 h at 4 °C with purified bacterial p27, p27 mutants or p27 fragments; extensive washing; bound p27 detected by Western blot; settings: both partners purified
T1 construct: p27^Kip1 (CDKN1B), human, full length; No tag is named for the full-length protein; also called purified p27; source: bacteria, purified by heat treatment (95 °C, ultracentrifugation)

[2] = target: T2, GST–hIC EpoR (273–508aa), cytoplasmic domain of human EpoR (human, UniProt P19235 273-508); experiment: as above; settings: both partners purified
T2 construct: also called GST–EpoR; source: E. coli BL21, purified on glutathione Sepharose beads
T2 sequence (looked up): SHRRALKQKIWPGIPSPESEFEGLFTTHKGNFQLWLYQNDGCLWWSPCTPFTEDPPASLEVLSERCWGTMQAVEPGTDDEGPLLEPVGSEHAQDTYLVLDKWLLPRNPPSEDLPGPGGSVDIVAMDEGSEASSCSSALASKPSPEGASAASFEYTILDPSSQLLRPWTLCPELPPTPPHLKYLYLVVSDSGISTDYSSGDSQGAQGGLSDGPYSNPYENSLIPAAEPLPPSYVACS

Row | Binder | binding result [1] | binding result [2]
1 | B1 | binds | –
2 | B2 | – | binds
3 | B3 | – | binds
